We go through three substances from paper PMC10936212.

What is called Kd is the concentration at which binding is half-saturated. A high value points to a looser complex. One may read the stoichiometry N as a count of units in the complex or per binding partner.

Data set [1] deals with CosR (Campylobacter jejuni) (UniProt A0A3H9R6A1). Put plainly: fluorescence polarization. The note with it: FP: 10 mM PBS pH 7.4, 5 nM fluoresceinated DNA, 1 ug poly(dI-dC), 25 C. (Fluorescence polarisation rises when a labelled molecule tumbles more slowly, as on binding a larger partner.)
Data set [2] addresses Campylobacter jejuni CosR regulator (Campylobacter jejuni). Put plainly: crystal structure; CosR (320 uM) with 21 bp DNA2 duplex (192 uM), vapor diffusion, Na-MES pH 6.5, 2.20 Å.
For data set [3] the target is unchanged. Put plainly: crystal structure; CosR (8 mg/mL) with 21 bp DNA1 duplex (2.6 mg/mL), vapor diffusion, Na-MES pH 6.5, 2.90 Å; the dimer is formed by a crystallographic symmetry operator.
For data set [4] the target is unchanged. Put plainly: cryo-EM structure; single-particle cryo-EM of 20 uM CosR incubated 2 h with 10 uM 40 bp ds-DNA; the class of DNA-free particles (apo-CosR) sorted in silico (build and retrieve), 3.77 Å.

Take “AATTAAGATATTATTAACCAA (double strand) [DNA2 (fluorescein)]”: the Kd in data set [1] worked out at 2.5 nM. Turning to “Campylobacter jejuni CosR regulator (natural protein)”, the stoichiometry N in data set [2], in data set [3] and in data set [4] was 2 throughout.

Take “TATTAACCAAAATTAAGATAT (double strand) [DNA1 (fluorescein)]”: the Kd in data set [1] was 4.5 nM.
